B1: TBX6 (parent)
chain: AFLELPHGSGGSGYPAAPPAVPFA
B2: RAD51 (parent)
chain: RFLRMLLRLADEFGVAVVITNQVV

Variants of: B1
Assay: protein stability index of a GFP-peptide fusion (GPS, HEK-293T) (PSI 1-6); higher = more stable
Settings: c terminus: a fixed tail appended
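Further: lentivirally expressed fusions sorted by FACS into six bins by GFP to DsRed ratio, PSI derived from sequencing read proportions per bin multiplied by bin number.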

Protein stability index: each site, then its substitutions
P18: T 2.41, L 2.44, N 2.19, D 2.61, M 2.56, I 2.29, H 2.23, W 2.03, E 3.32, F 1.96, G 2.39, Q 2.22, A 1.94, C 2.4, Y 2.06, S 2.55, K 2.4, V 2.01, R 2.17
Y14: C 2.99, M 2.84, H 2.5, R 3.03, F 2.77, E 3.8, K 2.78, N 3.54, I 2.65, T 3.48, V 2.73, D 3.33, S 3.25, L 2.85, W 2.21, Q 3.06, G 3.04, A 3.1
S9: Y 2.21, K 1.94, N 2.61, F 1.45, G 2.41, D 2.6, R 2.68, L 1.93, T 2.1, C 1.96, H 2.02, E 2.58, I 2.12, W 2.31, A 3.21, M 1.9, Q 2.63, P 2.61, V 2.17
V21: R 2.64, E 3.02, K 3.23, C 2.09, M 2.36, N 2.64, D 3.46, G 3.31, L 2.58, F 1.97, W 2.07, S 2.59, Y 2.12
G8: T 2.27, L 1.96, D 2.75, H 2.27, Y 1.97, V 1.68, P 2.21, I 1.88, S 2.71, R 2.1, F 1.71, A 2.86, K 2.42, N 2.53, E 3.31, W 1.93, Q 2.02, C 2.19, M 2.57
A17: S 2.46, C 2.61, F 1.99, K 2.4, T 2.58, R 2.37, V 2.62, L 2.57, G 2.03, N 2.22, M 2.17, Q 2.54, W 2.02, D 2.85, E 2.97, I 2.65, Y 2.36
H7: M 2.1, P 2.78, R 2.67, N 2.2, W 1.56, L 1.97, K 2.69, V 2.45, S 2.4, T 2.41, Y 2.34, I 2.39, Q 2.4
P22: Q 2.52, R 2.3, K 2.19, L 1.4, V 2.16, I 1.73, W 2.25, A 2.14, S 2.18, F 2.13, T 1.86, M 2.02, E 2.54, C 2.1, G 2.42, H 2.46, D 3.29, N 1.89, Y 2.02
A20: Q 2.99, K 2.85, E 2.87, R 2.56, T 2.42, H 2.38, S 2.52, D 3.49, M 2.35, N 2.69, W 2.46, V 1.84, I 2.11, L 2.21, G 2.73, Y 2.03, C 2.68, F 2.4
G11: V 2.12, S 2.7, E 2.77, A 2.5, Q 2.2, F 2.19, I 2.23, D 2.89, R 2.3, Y 1.95, L 1.93, C 1.9, H 2.15, K 2.07, P 2.28, M 2.01, W 2.32, T 2.11, N 2.07
A24: G 2.56, I 2.23, H 1.92, K 2.55, W 1.67, Y 1.89, S 2.63, N 2.68, T 2.55, D 3.33, M 2.19, C 1.53, F 1.54, R 2.54, E 3.4, V 2.47, L 1.6, Q 2.71
F23: M 2.62, W 2.18, T 3, H 3.05, K 3.38, R 3.3, L 2.35, S 3.21, E 3.56, C 3.36, I 2.52, G 3.72, A 3.48, Q 3.7, N 3.76, Y 2.42, V 2.89, D 4.19
S12: A 2.33, G 2.31, R 2.27, Q 2.29, C 2.12, L 2.18, N 2.62, E 2.74, W 2.55, H 2.22, Y 1.63, V 2.55, P 2.08, I 2.28, D 3, M 2, T 2.4, F 1.91, K 2.17
G10: D 2.67, N 2.42, V 2.2, H 2.34, P 2.44, R 2.07, S 2.7, M 2.3, E 2.96, L 2.22, K 2.01, I 2.55, C 2.55, Q 2.08, F 2.36, Y 1.9, W 1.25, T 2.1, A 2.24
P19: T 2.37, S 2.13, V 2.13, Q 2.47, L 2.25, M 2.19, Y 1.48, K 2.07, D 2.56, A 2.72, I 2.27, C 2.05, H 2.23, E 2.78, N 2.06, W 2.83, G 2.38, R 2.17, F 1.59
P15: L 1.94, W 1.99, F 1.54, Q 2.01, E 3.03, M 1.77, Y 2.23, K 2.15, C 1.8, A 2.27, N 2.48, S 2.38, G 2.21, H 1.93, V 2.08, I 2.01, T 2.56, R 1.88, D 2.81
A16: S 2.22, D 2.09, G 2.09, N 2.43, M 2.17, L 2.32, Q 2.77, H 2.21, I 2.24, C 1.61, E 3.49, K 2.99, V 2.19, W 1.94, T 2.63, Y 2.46, F 2.18, R 2.29
G13: A 2.87, I 2.51, N 2.4, D 3.02, C 2.83, L 1.83, V 2.42, T 2.52, S 2.44, W 1.73, R 2.22, F 2.21, K 2.58, Q 2.89, E 2.61, H 2.23, M 2.07, Y 1.66

Variants of: B2
Assay: as above
Settings: c terminus: a fixed tail appended

Protein stability index: each site, then its substitutions
R1: F 1.92, I 2.9, A 1.62, E 2.06, K 2.54, G 2.51, M 2.43, H 1.78, L 2.12, C 2.23, N 2.71, D 2
